Measured values as given in the supplement of paper PMC10567573.
± gives the standard deviation.

Assay: protein stability index of a GFP-peptide fusion (GPS, HEK-293T) (PSI 1-6); higher = more stable
[1] = treatment: DMSO, c terminus: a fixed tail appended
[2] = treatment: MLN4924 1 uM, 8 h, c terminus: a fixed tail appended
[3] = treatment: DMSO, c terminus: native
[4] = treatment: MLN4924 1 uM, 8 h, c terminus: native
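Further: 24-mer peptide tiles fused after GFP, lentivirally expressed, FACS-sorted into six equal bins by GFP/DsRed ratio, decoded by Illumina sequencing, PSI is the read-weighted mean bin number.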

| Sequence | protein stability index [1] | protein stability index [2] | protein stability index [3] | protein stability index [4] |
| --- | --- | --- | --- | --- |
| GGADIIVIKYNVNDKFSFHEVKDN [RHOBTB3] | 2.72 ± 0.42 | 2.09 ± 0.55 |  |  |
| GGAGREDPGLWSRLCRLAGASSPA [ZSWIM9] | 3.12 ± 0.17 | 2.92 ± 0.36 |  |  |
| GGARSLWRGNGINVLKIAPESAIK [SLC25A25] | 3.29 ± 0.45 | 3.19 ± 0.47 |  |  |
| GGDYGLVTAGCGFGKDFRKGLLKK [PPTC7] | 3.22 ± 0.36 | 3.6 ± 0.48 |  |  |
| GGGISCVLQDGCVFEKAGVSISVV [CPOX] | 2.23 ± 0.63 | 2.41 ± 0.48 |  |  |
| GGLLTGNEKITMQNLNDRLASYLE [KRT13] | 3.19 ± 0.15 | 3.24 ± 0.13 |  |  |
| GGLQHRVTAKTAPDVLRTKPAFIG [PTPRD] | 3.44 ± 0.5 | 3.07 ± 0.34 |  |  |
| GGQRSTPLIIAARNGHAKVVRLLL [FEM1B] | 2.16 ± 0.2 | 2.23 ± 0.44 |  |  |
| GGTGSGDGNKIFLCHCGKAFSHKS [ZBTB22] | 2.27 ± 0.38 | 2.58 ± 0.41 |  |  |
| GHEKTAKSKTRSLLKRMESLKLKS [DLC1] | 3.62 ± 0.17 | 3.89 ± 0.5 |  |  |
| GHGSHSFIYYENMLLGVPRLRQLK [PKD2L1] | 2.17 ± 0.12 | 2.27 ± 0.034 |  |  |
| GIEPLYIKAEPASPDSPKGSSETE [ESRRA] | 5.57 ± 0.21 | 5.36 ± 0.33 |  |  |
| GIIPYAGIDLAVYETLKNAWLQHY [SLC25A25] | 2.6 ± 0.48 | 2.65 ± 0.67 |  |  |
| GIRLPNGKLKCDICGIICIGPNVL [IKZF1] | 2.61 ± 0.48 | 2.46 ± 1 |  |  |
| GKDAKTTNGHGGEAAEGKSLGSAL [TRIM29] | 5.36 ± 0.14 | 5.27 ± 0.19 |  |  |
| GKTTIILRCLDRDEPSKPTLALEY [DYNC2LI1] | 2.25 ± 0.37 | 2.05 ± 0.29 |  |  |
| GLDYLHSKCKIIHTDIKPENILMC [SRPK2] | 2.06 ± 0.22 | 1.9 ± 0.35 |  |  |
| GLFFPPQLNGTANDTAGPELPDPL [NFE2L1] | 4.29 ± 0.27 | 4.45 ± 0.23 |  |  |
| GNQESKLIILASGGPQALVNIMRT [CTNNB1] | 2.21 ± 0.57 | 2.26 ± 0.69 |  |  |
| GPIQLWQFLLELLSDKSCQSFISW [ETS2] | 2.62 ± 0.5 | 2.73 ± 0.6 |  |  |
| GPLLDSLYWTKWYNNQSLGHGSHS [PKD2L1] | 2.51 ± 0.16 | 2.47 ± 0.38 |  |  |
| GPSRSRHRRRSRERGPYRTRKHAH [CLK3] | 4.92 ± 0.24 | 4.8 ± 0.38 |  |  |

| Sequence | protein stability index [1] | protein stability index [2] | protein stability index [3] | protein stability index [4] |
| --- | --- | --- | --- | --- |
| GQLRVFGAGLLSSISELKHALSGH [TPH1] | 2.24 ± 0.27 | 2.13 ± 0.19 |  |  |
| GRFCGQQNPPVIKSSGRFLWIKFF [NETO1] | 2.1 ± 0.84 | 2.39 ± 1.1 |  |  |
| GRLAMDEIFQKPFQTLMFLVRDWS [ATL3] | 2.25 ± 0.55 | 2.09 ± 0.21 |  |  |
| GRSWPSAPDDSKAQAHRIHIDPEI [PDLIM4] | 4.22 ± 0.33 | 4.31 ± 0.07 |  |  |
| GRTLIGFLRSIDQFANLVLHQTVE [LSM1] | 3.37 ± 0.64 | 2.75 ± 0.5 |  |  |
| GSEAAVIPLDLGCTQVTQDGDIPN [FAM189A2] | 5.05 ± 0.39 | 5.26 ± 0.5 |  |  |
| GSLGPVPVLRFDALWQVLARDCFA [TRIM14] | 2.42 ± 0.83 | 2.89 ± 0.43 |  |  |
| GSNRSGSDRRKEKDPKAGDSKSGG [DVL3] | 5.63 ± 0.21 | 5.47 ± 0.23 |  |  |
| GSSSSSSSSINSPDRASGPEGSLS [FAM104A] | 5.5 ± 0.22 | 5.45 ± 0.2 |  |  |
| GSYGVVFKCRNKTSGQVVAVKKFV [CDKL4] | 2.02 ± 0.48 | 2.16 ± 0.46 |  |  |
| GSYNGQIGWFPSNYVLEEVDEAAA [NCK2] | 4.65 ± 0.29 | 4.66 ± 0.36 |  |  |
| GTDGYMPRELASMSLVLHGNNLLV [KLHDC10] | 2.72 ± 0.68 | 2.35 ± 0.56 |  |  |
| GTEQSRGLGHGSTSRGGPWVGTGL [CPOX] | 3.27 ± 0.84 | 3.6 ± 0.26 |  |  |
| GTLSMGVPQIFKYGETCFPKGRFE [ZNF24] | 2.83 ± 0.11 | 2.56 ± 0.27 |  |  |
| GVCYSESQSSASQPRLSYAEMAED [CLCN6] | 5.11 ± 0.23 | 5.28 ± 0.31 |  |  |
| GVSEILLKTQMKMSLKCLAARAVR [FEM1B] | 2.65 ± 0.56 | 2.58 ± 0.26 |  |  |
| GYDGLNILNSVEKYDPHTGHWTNV [KLHL12] | 2.75 ± 0.42 | 3.05 ± 0.19 |  |  |
| GYFFPTSARDCKFTGNFFYNYMMG [DHCR7] | 2.36 ± 0.38 | 2.36 ± 0.21 |  |  |
| HAPGVPKILVGNRLHLAFKRQVPR [RAB40A] | 2.58 ± 0.28 | 2.88 ± 0.31 |  |  |
| HCIQQILEAVLHCHQMGVVHRDLK [CAMK2B] | 2.6 ± 0.7 | 2.95 ± 0.37 |  |  |
| HDFLSDLFSDDYGGKNCKKPAEYG [CEBPB] | 3.83 ± 0.16 | 3.8 ± 0.17 |  |  |
| HDGKPSEGSYRIHVLHHGTGKWYE [USP39] | 2.71 ± 0.2 | 2.88 ± 0.16 |  |  |

| Sequence | protein stability index [1] | protein stability index [2] | protein stability index [3] | protein stability index [4] |
| --- | --- | --- | --- | --- |
| HDHLTLSVSRPEGRSWPSAPDDSK [PDLIM4] | 5.15 ± 0.093 | 5.06 ± 0.072 |  |  |
| HEVLLCSDLVKAYQRCVSAAHKG [CHCHD6] |  |  | 2.56 ± 0.75 | 2.27 ± 0.45 |
| HFKKTKKMGGKDFSFRYQQELEEE [ATL3] | 2.59 ± 0.56 | 3.54 ± 0.81 |  |  |
| HFQPNSPASDLEAALEAAGEGLNV [NANOGP8] | 5.05 ± 0.26 | 5.24 ± 0.28 |  |  |
| HFRPRFHPLPTVIIVNLLWFIHLV [TMEM192] | 2.63 ± 0.48 | 2.82 ± 0.79 |  |  |
| HGQLDDLIFIFYKNGLPSPERSYV [PPEF2] | 2.88 ± 0.41 | 2.35 ± 0.44 |  |  |
| HGRARIARLMLESEYRSDIINAKS [ASB7] | 3.05 ± 0.3 | 3.18 ± 0.23 |  |  |
| HGRGTEVLLEEPLPLETARESPSF [ZNF263] | 4.69 ± 0.28 | 4.81 ± 0.25 |  |  |
| HKKTTHKLNCDPSRIYKPQTRLKR [DFFB] | 4.07 ± 0.28 | 4.22 ± 0.25 |  |  |
| HKRAIMPYGVYKKQQKDPSEEAAV [ATE1] | 4.3 ± 0.32 | 4.44 ± 0.11 |  |  |
| HLEINPDHPIVETLRQKAEADKND [HSP90AB1] | 5.58 ± 0.2 | 5.56 ± 0.1 |  |  |
| HLPWQYHAGQGGLFYSAEVEMLCD [CCDC3] | 2.94 ± 0.44 | 2.52 ± 0.2 |  |  |
| HMAKERAHSTASHSSSNSEDTEM [PDZK1] |  |  | 5.48 ± 0.26 | 5.39 ± 0.27 |
| HNCVDLMQAAEVFSQKHFPEVVQH [KLHL12] | 3.17 ± 0.16 | 3.14 ± 0.38 |  |  |
| HNRKVLTIFSASNYYEVGSNRGAY [PPEF2] | 2.44 ± 0.28 | 2.46 ± 0.24 |  |  |
| HPAATALHAELCQAGSSQGLSLCQ [LPCAT4] | 4.22 ± 0.29 | 4.13 ± 0.16 |  |  |
| HPIEEAAEEHREKLLKQMRILWKK [TRIM43] | 3.45 ± 0.39 | 3.7 ± 0.58 |  |  |
| HPLAYGMVGPLAQDPQSPMAGLRW [POMT2] | 2.85 ± 0.39 | 2.77 ± 0.18 |  |  |
| HQDVDLVCINLPPPLTRQIAVKTL [GFOD1] | 2.47 ± 0.33 | 2.53 ± 0.27 |  |  |
| HRQETVDCLKKFNARRKLKGAILT [CAMK2D] | 2.69 ± 0.52 | 2.71 ± 0.22 |  |  |
| HSEKMAQYLEEERHMREENLRLQR [CCDC6] | 4.91 ± 0.07 | 4.56 ± 0.25 |  |  |
